This data set is described as follows: label from the status in PepcDB records.
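Also: failed if final PepcDB status was selected cloned or expressed and not failed if soluble or beyond.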

“ARLVQLSRHSIAFPSPEGALREPNGLLALGGDLSPARLLMAYQRGIFPWFSPGDPILWWSPDPRAVLWPESLHISRSMKRFHKRSPYRVTMNYAFGQVIEGCASDREEGTWITRGVVEAYHRLHELGHAHSIEVWREDELVGGMYGVAQGTLFCGESMFSRMENASKTALLVFCEEFIGHGGKLIDCQVLNDHTASLGACEIPRRDYLNYLNQMRLGRLPNNFWVPRCLFSPQE”: the protein production entry is listed as “not failed”.

For the sequence “ARNAEAEGRLVRECRELLERHAFEELTVPDIAECLGVSVRTLQTALRAETGATPSELLRSIRLDRAREMLLEANPREQSVTAVAEQCGFTHQGRFSALYVKAFGELPSESLRR”, the protein production result is “failed”. With “ARNAVMVIDGIPVTKSSNTINDALEGVTFNLLKANPGTTTTLTVEKDKSNVEAAVNAFVKAYNDLEKTIGNLSRYDAANKQASVLTGDSTMRMIQNRMRAMLGGNQSAAGGINSLSELGISFQKDGTLALDNNKLSAVLNNPDKNIAAFFTTQGGDDTTSVEGFASRLSELIDGMTRSDGLISSRMDGINSTIKGIGKQREALEFRLESVEKRLRAQFTALDTMIASMNQ”, the protein production entry is “not failed”. The result for “ARQVTPGQVMVASTVAKLATIIDGEEDSTQRMGFETILPLREGNGPTLFCFHPASGFAWQFSVLSRYLDPQWSIIGIQSPRPHGPMQTAANLDEVCEAHLATLLEQQPHGPYYLLGYSLGGTLAQGIAARLRARGEQVAFLGLLDTWPPETQNWQEKEANGLDPEVLAEINREREAFLAAQQGSTSTELFTTIEGNYADAVRLLTTAHSVPFDGKATLFVAERTLQEGMTPEQAWAPWIAELDIYRQDCAHVDIISPEYFKEIGPLINTQINN” reads “failed”; that for “ASISEVAAITGLTQDTLRWYEREGMIPTIARGSDRRRRYSERDVRLIELLVKLRTTGMPTSDMQRFAVLLAGGAETHERRLALLLAHRERILAQQARLDDALAALDTKVDHYR”, “failed”; that for “ASRDLLKEFPQPKNLLNSVIGRALGISHAKDKLVYVHTNGPKKKKVTLHIKWPKSVEVEGYGSKKIDAERQAAAAACQLFKGWGLLGPRNELFDAAKYRVLADRFG”, “not failed”.

For “ATDVAARGLDISGVTHVYNYDIPQDPESYVHRIGRTGRAGKEGMAITFVQPREMGYLRIVEETTKKRMQPLQAPTWDEAFAGQLRVATEKIQEAITEENLADYKTFANELLEKYDATDIAAAMLKMLAKEPDKTPVHITEERPLPSRGGGGYKGK”, the protein production entry is “not failed”. On to “ATITHQEKLLTVDTTAHPFLKALGGHEGTDIFPLFMDPYNGLMVMRASFAPGLTLPLHFHTGTVHMYTISGCWYYTEYPGQKQTAGCYLYEPGGSIHQFNTPRDNEGQTEVIFMLSGCNVNFTQDGTYLGLSDAGVIKNWVDRAIREQDNGLRYIAAAVPTYAA”, for which the protein production result was “not failed”. Consider “AVGSGSEGFIVRLPAALLFKEGGIEVENSDGFLFVKRMAEIVNRLPKDVHVEVRGHTDTLPLPAQAPQDKLELTAKRALSVSKLLVKEGIDPKRITTVGRGDQDPLTHARTPEAQESNRRVDIYLYPKE”, for which the protein production result is “not failed”. For “AVNEENIMIPKGVEVYEITGPYFFGIATKFEETMAQLGDRPNVRIIRMRKVPFIDSTGIHNLTTLCEMSQKEKITVILSGVNEKVYKVLEKSGFYELLGKENICPNFKIALDRAEEV” the value was “failed”.

For the sequence “AVPGEVRLQVKDLRSVGGSALNGVNMTLRAGQIYGIAGVGGNGQAELANALMGLPQATEGDIHLAPFGDLRNASAEQRRQLRIASIPADRYGAALAGSLSVAENFGIGNIHSGHYGSFWRLGYKRLKQDAQRAVESFDVQGVRSLDQKAALLSGGNAQKLVIAREFSRDPQLVLVHSPSRGLDVRATQAVHDRLRAARDAGAAVLLISEDLDEVLALADRIGVMNGGRIVAEFDHPADRQAIGKAMVSHD”, the protein production result is reported as “failed”. On to “AWKGEVLANNEAGQVTSIIYNPGDVITIVAAGWASYGPTQKWGPQGDREHPDQGLICHDAFCGALVMKIGNSGTIPVNTGLFRWVAPNNVQGAITLIYNDVPGTYGNNSGSFSVNIGKDQS”, for which the protein production result is reported as “not failed”.

For the sequence “AYSELQMLSPSERQCVETVVNMGYSYECVLRAMKKKGENIEQILDYLFAH”, the protein production entry is listed as “not failed”.

As to “CDLERYPLTDLSEETFWNSESNAELALTSLYRGSLTDGVEYNPSDWWSYHGMIMMEHLSDNAFDRRGENNPFFKISSGNLTADNAFIKRYWETSYKRIGYCNRFLVGIQNSSESEKKTRMIAEARFLRATQYFYLASYFKNVPLVENVLTGEEANNVTKTSQADILKWCVTEFTAAAADLPRFSAIPAGEAGRACKQAALAFLGRTCMLQKDWKSGAKAFHDIMELGDNAINANYQELFYPSTGTSNKENIFYIQYLENYLGTGLPQHALSAKDGGWSLVNPAADLYESYEFKDGTPFSYDDPRYDPSNLGKDRDPRLDYTIYYNGAIFMGTEYKMSPDYSAAKKEKLDYTSEASRTGFMMRKYFEESTPINDVQSANGLTPVIRYAEVLLGYLECLVEDNQTITQGILDETINAVRGRASVNMPPVTEVTPAKLREIVRHERRIELAMEGIRYWDIMRWGIAHEVLSQKIWGAPYPGSTQYATTTKEVDPTGNYRWYVGKRAFRNPTDYTWPIPQSEQNINPNLRD”, the protein production entry is on record as “not failed”. The result for “CMPYRVEIFDTSHHSSSQCVGGMVVYENNAFQKNSYRRYHLKGSDEYTQMSELLTRRALDFAKEPPPNLWVIDGGRAQLNIALEILKSSGSFVEVIAISKEKRDSKAYRSKGGAKDIIHTPSDTFKLLPSDKRLQWVQKLRDESHRYAINFHRSTKLKNMKQI” reads “failed”.

Regarding “CTNYSLLKLAGDVESNPGPTIFSKASADLNALSTSLGELTGMLKDLKAKAETYSPFYKMAKMLFKLATLAVAAMRTKDPVVVVMLIADFGLEVFDTGFFFSYFQEELQPYMKTIPGKISDLVTDAATAAAQIPKGVYSFVSSFFETPEGAVEKQ”, the protein production entry was “failed”. For “DARVQVMGIDAGGTMTDTFFVKENGSFVVGKAQSNPEDESLAIYNSSQDALSHWKSDVSKVYPELVTCVYSGTAMLNRVVQRRGMEVGLICNKGFEQMHSMGRALQSYLGYALEERLHINTHKYDDPLIPLKRIRGVTERTDVKGQVVIPVRQEEVKVAVKELLEAGAKAIVICLLQSHKNAESERIVRDIALKEIEKLGKN” the value was “failed”. The result for “DAVELFKKANAMLDEDEDERVDEAALRQLTEMGFPENRATKALQLNHMSVPQAMEWLIEHAEDPTIDTPL” reads “not failed”.

Consider “DDLEVGKNIDESAYSGIYENNAYLRDGKSNLVSKVVELHGETYATTVKMGLSKTPNTATSAKVKIDAAYLETYNKAHNTDFALYPQDLVTFANEGILTVNANTKSAEVEMTIRAGEGLQEDKTYAIPVAISDQSSDITIKDEDAKHCIYLVKDMRNAGDAYKGEGVMQGYLFFEVNDVNPLNTLSFQLENGKLLWDVVVLFAANINYDAEAGRPRVQCNPNVQYLLDNNETLLQPLRRRGVKVLLGLLGNHDITGLAQLSEQGAKDFAREVAQYCKAYNLDGVNYDDEYSNSPDLSNPSLTNPSTAAAARLCYETKQAMPDKLVTVFDWGQMYGVATVDGVDAKEWIDIVVANYGSAAYPIGQMTKKQCSGISMEFNLGGGGSLSASKAQSMIDGGYGWFMGFAPSPAKYGSVFSRLQGGGEVLYGSNVAAPTIFYKKNDPTPYKYPDDL”, for which the protein production result is on record as “not failed”.

Regarding “DDNERLSKVEKARQLREQVNDLFSRKFGEAIGMGFPVKVPYRKITINPGCVVVDGMPPGVSFKAPSYLEISSMRRILDSAEFIKFTVIRPFPGLVINNQLV”, the protein production result is recorded as “not failed”. The result for “DELEAAAESLEDGSLILEGSTDIRHVSLLLNRDLVDESEEYSTLSGYILFHLGRLPENGQKMHADGYIFEVVTMDGHKIEKVHIVADP” reads “failed”; that for “DETQVLATVTQELANLFQLESCYIELYNTDCTAVSVVCEYAANQPTYQGLTRQIADFSEIYQPLLQKQHFQTIEIVPGWHPQLLVITQLACPIFDAQGMLGNLWLIRPIQQMLSQSEICLVQTLANLCAIAIRQAKLDATNQARLKKLEQRESLTNKFLRKLSQELRTPITSISLAAQTLETVLSPTI”, “failed”. Consider “DGSFRRWSLRQVPEVQGAFMAMDVNSGRVLAMQGGFSYQYSVFNRATQATRQPGSSFKPFVYAAALDSGFTPATIVIDAPIEVQTAQGLWTPKNASGKYYGPTPLRTGVEQSRNLMTVRIAQEIGMDTVASYAERFGVYDRMGQFLANALGAEETTLFKMVAAYAMFANGGERVQPTLVDRVQDRFGRTIYRHDQRICDDCAQPLLPEGRAPHITSKRERVMDAITAYQLTSMMEGVIKRGTGRGINLPVPVAGKTGTTNDAKDVWFIGYTSNIVAGCYIGYDQPRSMGSASGGGFCGPVFQSFMTKAVKKYGGSEF”, for which the protein production entry is listed as “failed”. As for “DHLILLPGWGLGSAPLEPLRDALHEREPHLNVLIEPLPSLDDAADWLDELDDNLPRDSWLAGWSLGGMLAGELAARRGDDCRGLLTLASNPCFRVREDWPNAMPAETFEDFFEAFLLEPHLTRKRFTLLVSQGARDPRTLARQLQVALPQLEREALVAGLQLLGQLDTRAALENFRGPQLHLFAEADALVPLAAAEALLEWLPDVEVSTLAASHGLPLECPDEVAGAILRFLRE”, the protein production entry is “failed”. For “DKGTALLVNRSLRFGERTAEELMTPRVKIVTLSTTDTVADLIDTASRTGFSRFPVVESDLDDAVGVVHIKHAFAVPAHRRRTARLNSLAQKVPVVPSSLDGDALMERIRSDGMQVAFVVDEYGGTAGMVTMEDLIEEIVGDVR” the value was “failed”; for “DLAPSRVESLTLIMTSSGAQGLPMPNAALLQLLARRGAPDREVALEQQADLLAALGSPQVKDDREQLLHQAAVSYDRAFNPEGVKRQIMAILAEPSRVELLNRLRLPVLVVHGTADPLLPVMHGVHVAAHIQGSQLRLIPGLAHRFQEAFKAPLLGAVLPYLKA”, “failed”; for “DMAFQLRTERLDLNMWEESDAVWLRELIGERGVEMPTVESVRNDLIEKRKIAVENGISLLTIRRRDEGDFIGYCGLIIGRSTLEEPEIAYELFRSAHRMGYATEAASAVLEAAIATGRKRLWSTVGAWNTASFRVLEKIGFKR”, “failed”. The result for “DMLLVDEMKRGMAQGNASGKHLIILHTKGSHFNYTQRYPRSFAQWKPECVGVDNKCSKAELINSYDNSVTYVDHFIVSVLDQLRDKKAIVFYAADHGESINEREHLHGTPRKMAPPEQFRVPMMVWMSDKYLENPDHAAAFAHLQQQAAMKVPRRHVELYDTIMGCLGYTSPDGGINENNNWCRWKK” reads “failed”. For “DNHGVVHCVESAPAAVSAGKRALSQLVEDQKIVFHTETVERAMNQLPAPTLVVLDPPRVGAGAETVRAIAQSGPQAAIHIGCDPATFARDIAEWSRNGFILEKLRVFDAFPGTHHCETIGLLTKKN” the value was “failed”; for “DNMEAVKTFNSELYSLNDYKPPISKAKMTQITKAAIKAIKFYKHVVQSVEKFIQKCKPEYKVPGLYVIDSIVRQSRHQFGQEKDVFAPRFSNNIISTFQNLYRCPGDDKSKIVRVLNLWQKNNVFKSEIIQPLLDMAAG”, “not failed”; for “DPLDNLVAPTAAAAAAAAGKKKQPSAAAAAATKTTANKVANSNNKANAGSNIGGPNAKKPNQAEKENKPNNALNKTDGKKFTPSADNKQQQFNNNASSNYK”, “failed”. With “DPQFHREGDDIVVEREIKFTDAALGASLDVPTLEGTKRVKVPAGIQSGTKIRLKGLGFPHMGKTAKGDLYVHINVSVPRSLSADQKAILEKLREAGL”, the protein production entry is recorded as “failed”. For “DPSPQTIYKWIKDNISPKLHVDKGFVNILMTSFLQYISSEVNPPSDETDSSSAPS” the value was “failed”.

The record behind these values is a protein production outcome set (Wang et al. 2014).
